2 molecules from paper PMC6783313 (Nature structural & molecular biology, 2019) can be followed below.

The chains are these.
B2: ClpX(E183Q) from Listeria monocytogenes (natural protein)
chain: not shown

Data set [1] deals with B2. The experiment in a line: HDX-MS.
The data set “cryo-EM structure” deals with the molecule itself. Put plainly: cryo-EM structure.

B1: ClpP2(S98A) from Listeria monocytogenes (natural protein)
chain: not shown
A word on the stoichiometry N: it is a count of units in the complex or per binding partner. For the molecule B1, in data set [1], the binding result is “binds”. For the same molecule, the “stoichiometry N” value in “cryo-EM structure” came to 7.

On to B2, for which, in the data set “cryo-EM structure”, the “stoichiometry N” value was 6.
